From the DeepSol protein solubility set

Assay: soluble on expression in E. coli; label from the status in PepcDB or PDB records
For “MAHHHHHHMMAHRCAFQTIASPALTQREVEFTKSAWIAGLRPDQRGAQQLREVNVDFPLLSRDVSCVRCGGTIVTAAIACELVEPFPCRPKHGIIDFSVRQPYTERDSSAKTAELKKLTAFLERLIKGGGVVDTEGLCVLPGRRVWSISVDVTVLNDEGNVTDVAVWATVAVLLHYRRPELTIRGDSVILHPTHERDPVPLSIHHTPLSFSFAITMAPGDRNKLARGRRDSQEALEVVVDPTFAEATAASSSVVVAVNAEGQVCSVSKSEGSCIHLNEVNHCMETASLLAPHILSLIRDAMAAHDKRRQEVLKRMFLWAQKRSGVTSEATEPEPAKKLKTET”, the “soluble on expression in E. coli” value was “not soluble”.
In the case of “MAHHHHHHMNEEILKNIKVNNNFLEFEEIIKDINTPFNFIDLVEIPCVPVVDLYGLSLLNNEAYLEYKSGLREDKLNADDEIKLTLFFAVKLYKKNIIRIKFPSYYDIIETLKFDPVSVTIGLFNQFYFETAYELCNLLPINEWPSTNFYDILRKAEKTRIHFLINNKTKLNSYFLEGLTNKEKKIYKYFLEGTSKEREKLNKETTLFHFYEKEKC”, the “soluble on expression in E. coli” value is reported as “not soluble”.
In the case of “MAHHHHHHMNGMRAYNLGSRRYHDVLRLQEAIFRKKIDRQMRYIRGDKSARLIPNVVLLVEHSSPVYTIGRRDTSNGIKAGCAAEVVKTRRGGGVTFHGPGQVTMYPIVNVQVLWKQCTASDKPRSPIEWFSSVLEQAMINVAGEYNIPAHRGRVGVWSDSWGDVAPRKMGFVGLQLGNWVSMHGAGLNVSNNLLYFNDIVMCEMPNEAATSLVEELRLRGLSGAEPTPHVIAPRLLHHFLLSMQQQESVVNTELVDLSIDGSWERSILCELE”, the “soluble on expression in E. coli” value is reported as “not soluble”.
With “MAHHHHHHMNIEDDENKEKKETCLSYIKKINMSEIINDEAIGKRAEYLWNLALSAVYINVKLSMKYITLIKKITKNNLLFDNICCHYCNLIYIPFYNCKITHSPNQGKATYTCLLCKRKKKINLQHLSKHKNIYPLKHSDKHKPSTSNLSNVNFFLINEIDNYEIKKNNVPLNKDDTSNTENQLITKQENKNEDILKDVSCADMQKEEHIINQDNIINQDNIINQDNIINQDNIINQDNIINQDNIINQDNIINQDNIINQDNIINQDNIINKNDMYQNLSYLFRIDYGINKDDTQKGNEIYDKSIVNESEKCKSVHIENNKNDDNKNMNSESKNIKNERKRKSQNNNIAQNKNQGFPNVNMNDGFLNFNKSKKKKGKSILDIL” the “soluble on expression in E. coli” value was “not soluble”.
For “MAHHHHHHMNPMDALIARAAAEERQQAKMKQKSTRVSGESDLDHPSPSAAFPDSVISRGERASILCYVDPAATTTSSNFSVRRLRTFSACPTFKGGMIMRLTMCHDAQHLTVAFESGHIVLARYRDADVIDMADEPGEVCHAGGSMSVARVRNVTRAFADSALACWWSGRRMLACSSEGGMHCYDVSATAEGLLEAHLVWSVTLRKGIGSVFLQRNLVVAGCWDSTLRLYDARDGRLVSILSYQRETINEVRAAPPSIARVAAFGFDVRQPRLYAGQPGALSTKIPACIASNSKAVTQGNLPQFSESPLRETYVAGTPTPHSSSGSLAAEEQLVYLFASASKACTVALWRVDLGLVVEQTAREAIAAQTV”, the “soluble on expression in E. coli” value was “not soluble”.
With “MAHHHHHHMNRGCLLGEYTGRCLGESAHVRSNLICALCCVTRSQIIYIYIYIYFAVVVEEVPIVTCTNIIMSSVVSRREETHFCLRYFRIPSNKKNVFSLLYRQLLFNSLINHCF” the “soluble on expression in E. coli” value was “not soluble”.
In the case of “MAHHHHHHMNRIPAATRNAPMYATAMSQFAVCRQPWNEYISLLTKDDAQPFHTTPQEKPAYRGRKRGREGWLFGQQVQLHYHRFPDEQLFTNLTRWRMGDTVGDVAIQQFRNAQPFDIEDKDPQGFQRPAPEVYMKLNYKNPATISRFLTRTGHMYPQDIMPLNPEAVVKLRVAKAQAIRIGLYPRFGNPFWFRSQSFRPKAYQENYDPTTYSTKHTMEHFAYNWVQTDRIRQYFKGLEELHQSRRATASSGGGGVTSEHKQQSQLYALDNMSIEMHRNAPSYRADVERSIKKPTVPGLMSTKGMKKKFHNLYSSTSTKRMGFSNPTLGIKKV”, the “soluble on expression in E. coli” value is reported as “not soluble”.
In the case of “MAHHHHHHMPGFADSFNGVAVGSSTMLTRGTHSSQDAVHHTDTATAAEWRALYGASADMMNSTAHTYRACGAGVSYMTPIFHLTANDVTILSMEHNNHCRLLGIATSKNQIFVTWTQVMPVIENMGMLRAPDDDLFGGEQATPVDERLLEWDPATMSILIDELPYTCTELSWAPWQQGIYLAGLCPGHGIRLYRYSHGNWALDDCIRSTESVSCSISTNFTVACACRRGRVELWVRGSTASGTAVAPGPSPSLSAGDSTATNGGDGVSHTSWVLCRVLTLPFSEDDNGGSRTHDGDRSGGAGSPSAVAARHRRRDILGVAWVESGALLAAGDQGGSVYVVAATQDSTRLGEVVYHQLPSALCGPCKQVAWSPSSGRSFLCLAMVFTTCVRLVLFRRPSFMNAAGLPHAARSVGGSGGGRMGWAHSSVAPIAASSLEVLAMTQVPCEEVAKLSWNNTGTRFVTAHLDSSVNIWAVDFRYRHPVKGDGANATSGREEANTLHSVDSARMDRQVETSVFAAAGEERLGIVVSVQCTSAVHPYHAVSK”, the “soluble on expression in E. coli” value is reported as “not soluble”.
With “MAHHHHHHMPLLTRGQRRLLEYVAHDGGTKGLKRRRMEDVAPVLHKRKQKWTHKFTTKTASADASLAEVPLSSEVLEFLREYCPKVPRKLRQSQLRVISDLSGAFGGNSEKEEGETFTVKRVELKENAEVFAVVALAALQRRALWSGSTPQGASLFVLVETDADAAALAAHMGNTYKMTRTLVLDGSRFPTFPAVEKDDAATATTLAERTALVIASLQAFVTVDARSAIWKFIGAYAIWLKSSKPPALLQEMADGTRSELEENCAGSGGVVWDMPRWLLSLLHRESPSLHP” the “soluble on expression in E. coli” value was “not soluble”.
In the case of “MAHHHHHHMPNNDSHDAQLLRHYAQFFPNVLFTSEEEMEKYCQDARPDAVKKVLDLPEGEEVPEDAMNDPRAHLYILKHIVGRNATTAAFVALRGSDKQKVVAKFIMLNDEKQAAYARSEVHCLAACDHFGIVKHYDDLKSEDKLLLIMEYGSGGDLNKQIKQRLKERLPFKEHEAGLLFYQIVLALDEVHSRKMMHRDLKSANIFLMPTGIIKLGDFGFSKQYTDSVSLDVGSSFCGTPYYLAPELWERKRYSKKADMWSLGVILYELLTLHRPFKGPSQREIMQQVLYGNYDPFPCGVSDGMKAVMEPLLSKDPALRPTTTQLLHTELMKYVANIFEEIVRNSEVIEKHDKERILRQLAESRAKAPPPNSIQAGAVSNDVVREGYLLKYSSDMKWKKRYFSIKNGQLRISLTDNPEKDGVSPKSASLETVNDVFPVPEAYCRSNPHQLVIWFTNGQKIIAMAKSAEERDQWISDFQRACGM”, the “soluble on expression in E. coli” value is reported as “soluble”.
In the case of “MAHHHHHHMPRKETKKRKRAPSSAKESVSSTDEQGKRGGAFSKFKEFDVSELLQKPQEVPEIQPVVEEQPCSPCDEVVADPPPLTATDTVEATSEEPAAPIPQLIPPEPLKDLPPDEEFVPLPTIQVVPMMNRALEAQSGLLKEPAPPASIQRVTQPGALPPAMPTALMELLSG”, the “soluble on expression in E. coli” value is reported as “soluble”.
With “MAHHHHHHMPSVATASTRAVLAYPTDDAKLLVELTPTDRVAGGGSCGGFSGGGPMTQSDLGVGGSRMLQSLLVTRNVRDHLLDLRFSEAALSAQVTLQGDTVRDLIADITAAQSTEVSIRIDPKVGVILRGEGGPYGEVEAHVHATSEALLSLSREQSASTRVYTHHLALACGARGGTGGGGSSGSSAGAGGTGGGRLRGTGASVRDGRLSNADYILMGLAASAAGAGSSGGGGGAAVGTLFGGFERLTLQINAQRQLSVLHTQRDHELKVFVTVVVMPLSSVCDML” the “soluble on expression in E. coli” value was “not soluble”.
With “MAHHHHHHMQETQELRCATTQMAPAVIFPLPPPLRGSYIDRKPTAASFNEHHATASFRHHMIASADVSHRPRHFYFASGTRNDTGTRSVKEGERKQLKQQTNVEVDSVAYGDQLDELSARWAAKFYGQVTFGPRNYPYPSSRWLARRFQMKKHRIIKRFRFRRYKLAAVANLPFAKMIRVGMLPELKSSKTKRGDVVDPTLSGQLVSAVKNTGEKRKGQRTRPKSKYQV” the “soluble on expression in E. coli” value was “soluble”.
In the case of “MAHHHHHHMQKHNIKLNQNQDISQLFHDEVPLFDNSITSKDKEVIETLSEIYSIVITLDHVEKAYLKDSIDDTQYTNTVDKLLKQFKVYLNSQNKEEINKHFQSIEAFCDTYNITASNAITRLERGIPITAEHAISTTTSAPSGDNKQSSSSDKK”, the “soluble on expression in E. coli” value is reported as “soluble”.
In the case of “MAHHHHHHMQMRRDALGNGKALEFAKELSLAYKQVIQATQHIGKQRQALTGCTDLSVKTREWAAAEHDIAGALEKYGAAPYWVEQRGWRPGRLQSFEAAHSRASSGTEVSYLCSRLRGYVKAAFTAHVTKPPKLNASEVDVAELLTFFTGSGDGALVVEVALAKFFVVENMHVRAPELWVMNYLLHCYGVEEGIMLAHEADVVDGGFKQQGGGAFEEQFLIQKNIWAVSQVLVPHCYAVTRCDEATAKAGVEACVRCEGTEGQGTEGAFPTWPGTPPASLPPAYRLARSVNDYGKEAGEDKTSRIIGELDGVIYDASARQVLLVLEAKQNIDVCKAFKQKERLYNALDATRKTLSQASQGAALTAVQLSAENETKTATTTAAGRNATPAAEAACAASTKLHTEPVVLRFFVTPTTAAEAARENFSVNGCSLVTGVGAEPAANFQDMRNSGDMASAAAPPVRSKAAAARLATAGNPFFTQDNFAAFFGATASAVQGDSTAPSPTPTRSDSMTPRHLGRDQRWIYLTSLSTGNSPGARTTVPAPGGTIHMVELTLVKTACNFVAEAYDSYFQISTLPPTATPALQSLVSAMRVCSAYAPETEPMALFHLFLELPPQECISARAETAAVSRSDPCEYVLHLFRHDVRCKDGAAALEQVWLRENFIDGLVLSEHSFI”, the “soluble on expression in E. coli” value is reported as “not soluble”.
In the case of “MAHHHHHHMQSSISQEKLQLMQKNFNLVDLNKDGKIAAEEFKTLLRLLGQTKTEKEMDEMVDKHFEDAPIGEEQQQDAAEAADKGGANEGTPSTAKQLGGQKNTAKTAPNHDRIKNLIAKLNNSKDEDKKKNSPNGQINRTGDVYAKNELINKKKKHINFETFLRIFLETYEEPLSVDELITSFEFFDKEKSGYLDEEKVRFILKNSEERLADEDMKLFLNSLNLRDKDKIDYVMLAKRLKNVA”, the “soluble on expression in E. coli” value is reported as “not soluble”.
For “MAHHHHHHMRGTPLREGHHSPTQSVRRFFSDYQHVQEEKVNLPRLKLRGLPFDASEEEIKTFFKNFQLAKVGYPIHIIRGVKNKPTGQAHVYFDDEEEARKACETLNRKFLRNRYIEIYTDYIFNHNLTLVKEHVTTLMRDRYRKDNQ”, the “soluble on expression in E. coli” value was “not soluble”.
In the case of “MAHHHHHHMRIHHAFFRQSCRIMRGIDSARSTPTFVNGTDGMGTIHMLFSKRTHSNTTHSNADSAYMPGSNLHVEHPIVQLPARSLWCKQYPLDISLVRRGEFNDMIGRVRAARHYYQYPSLCAPKIGWNVQMFTLFDGTVFINPINLDALEVEEIAKQKSITFVEAEALWMEKKRREGKTCFAWEPCASCCFLLHFIERPSTVRVRAIAEDGNPFEVTLDKMRARMALHELDHLNGILFTRRIPDTSHVVPLEGFSTMSEWPDDYPSLEARSTFLYTTFTPPYTFITDSVEDAQLLDRKFEDGIYPGCEHDRRMRIESAAFEELQRAQWRMEKTREENSEEYDGVEGEVDEEDQEHCEETAAGGVAVKDNAPQ”, the “soluble on expression in E. coli” value is reported as “not soluble”.
For “MAHHHHHHMRILHKLGKNVFQTARRSFSLVTKQAHDFTAQGLNKNNEIINVQLSSYIGKKYCCLLFYPLNYTFVCPTEIIEFNKHVKSFEEKNVELLGISVDSVYSHLAWKNMPIEKGGIGNVNFTLVSDLNKEISKMYNVLYENSFALRGLFIIDLQGKVRHQTVNDLPLGRSVDEVLRTIDSIIHVDKTGDVCPINWKKGAKSFQPTNDSLLNYLNTEVKKE”, the “soluble on expression in E. coli” value was “soluble”.
